Test results as given in patent publication US20250136674A1 (KYOTO UNIVERSITY, published 2025).

Target: T1, purified full-length recombinant mouse USAG-1 (mouse, UniProt Q9CQN4 24-206)
T1 construct: also called purified recombinant mouse USAG-1 protein
T1 sequence (looked up): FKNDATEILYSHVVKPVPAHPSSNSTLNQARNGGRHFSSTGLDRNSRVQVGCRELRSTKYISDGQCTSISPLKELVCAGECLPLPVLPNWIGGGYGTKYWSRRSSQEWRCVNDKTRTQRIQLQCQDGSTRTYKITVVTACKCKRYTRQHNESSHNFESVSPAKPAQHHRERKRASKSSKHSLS
Test: BLI (Octet Red), antibody immobilised, mouse USAG-1 at 10, 30 and 100 nM, global fitting
Description: For the antibody obtained in Example 1, affinity (KD values) was determined by using a BLI method based on Octet (registered trademark) Red (manufactured by Pall ForteBio). Specifically, each antibody was immobilized on the biosensor, the purified recombinant mouse USAG-1 protein was added at three different concentrations (10 nM, 30 nM, 100 nM), and binding and dissociation curves were obtained. The affinities were calculated by subjecting the obtained curves to global fitting with an analysis program attached to the Octet device.

Kd: 3.26 nM
B1: mouse anti-USAG-1 neutralizing antibody B48C (antibody, V domains shown)
VH: EVQLQQSGAELVRPGASVKLSCTASGFNIKDDYMHWVKQRPEQGLEWIGWIDPENGDTEYASKFQGKATITADTSSNTAYLQLSSLTSEDTAVYYCITPYYYGSSFSYWYFDVWGTGTTVTVSS
VL: DVLMTQTPLSLPVSLGDQASISCRSSQSIVHSNGNTYLEWYLQKPGQSPKLLIYKVSNRFSGVPDRFSGSGSGTDFTLKISRVEAEDLGVYYCFQGSHVPWTFGGGTKLEIKR
notes: Mouse monoclonal from a hybridoma (USAG-1 KO mouse immunised with rat USAG-1)
